Target: FnCpf1 (Cas12a) (Francisella novicida U112, UniProt A0Q7Q2 1-1300)
Assay: native PAGE / preparative native electrophoresis; 5 mM MgCl2; protein:RNA:DNA 1:1.3:1.7; Reconstitution: 81 mM KCl, 38 mM bicine pH 8.0, 5 mM MgCl2; protein + crRNA 30 min at 293 K, then DNA duplex 60 min at 368 K (so in the source); complex in 150 mM KCl, 50 mM bicine pH 8.0, 0.5 mM TCEP
Conditions: protein: recombinant; tags: C-terminal His6; crRNA-guided DNA target

FnCpf1 (Cas12a), sequence (A0Q7Q2 whole entry): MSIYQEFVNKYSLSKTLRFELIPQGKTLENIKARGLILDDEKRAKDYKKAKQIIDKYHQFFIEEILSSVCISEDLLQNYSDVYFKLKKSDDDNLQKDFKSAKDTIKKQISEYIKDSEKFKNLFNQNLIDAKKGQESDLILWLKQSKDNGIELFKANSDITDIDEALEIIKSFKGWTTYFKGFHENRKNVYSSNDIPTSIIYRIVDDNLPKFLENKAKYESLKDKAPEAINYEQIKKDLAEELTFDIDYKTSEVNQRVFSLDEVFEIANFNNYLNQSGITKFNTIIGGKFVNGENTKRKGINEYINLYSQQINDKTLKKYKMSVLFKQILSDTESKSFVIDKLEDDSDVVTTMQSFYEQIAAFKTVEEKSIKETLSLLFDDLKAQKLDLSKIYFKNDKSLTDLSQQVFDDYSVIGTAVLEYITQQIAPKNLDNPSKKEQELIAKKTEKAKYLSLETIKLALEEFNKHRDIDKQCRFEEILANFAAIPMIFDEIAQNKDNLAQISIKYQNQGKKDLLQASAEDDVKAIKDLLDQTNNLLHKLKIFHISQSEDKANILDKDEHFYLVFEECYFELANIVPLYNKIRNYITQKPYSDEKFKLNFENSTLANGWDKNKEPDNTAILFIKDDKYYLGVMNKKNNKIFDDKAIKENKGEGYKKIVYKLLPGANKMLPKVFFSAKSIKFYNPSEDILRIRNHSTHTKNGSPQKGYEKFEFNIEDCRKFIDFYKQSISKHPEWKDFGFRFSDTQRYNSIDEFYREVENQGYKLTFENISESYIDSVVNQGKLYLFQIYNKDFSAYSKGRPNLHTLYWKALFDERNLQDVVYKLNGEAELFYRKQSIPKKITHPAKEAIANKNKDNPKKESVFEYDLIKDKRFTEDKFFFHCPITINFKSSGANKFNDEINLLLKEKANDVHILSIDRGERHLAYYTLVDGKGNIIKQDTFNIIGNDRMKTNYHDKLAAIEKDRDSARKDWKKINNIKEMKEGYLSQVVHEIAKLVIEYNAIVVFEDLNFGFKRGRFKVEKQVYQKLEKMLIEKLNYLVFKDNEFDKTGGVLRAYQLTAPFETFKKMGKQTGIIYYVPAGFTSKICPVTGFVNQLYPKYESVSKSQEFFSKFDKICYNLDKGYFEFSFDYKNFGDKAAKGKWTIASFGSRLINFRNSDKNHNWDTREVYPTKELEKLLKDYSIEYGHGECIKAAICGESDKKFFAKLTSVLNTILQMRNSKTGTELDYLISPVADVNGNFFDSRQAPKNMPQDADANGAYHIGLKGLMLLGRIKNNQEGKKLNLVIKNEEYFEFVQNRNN

B1: crRNA + 31-nt dsDNA target (target and nontarget strands) (mixed)
RNA: AAUUUCUACUGUUGUAGAUGAGAAGUCAUUUAAUAAGGCCACU
DNA 1: GCAGTGGCCTTATTAAATGACTTCTCTAACG
DNA 2: CGTTAGAGAAGTCATTTAATAAGGCCACTGC
B1: binds.
